In article PMC3246092 (Gene, 2011):

T1: Rrn7p subunit of recombinant core factor, N-terminal 6-his (S. cerevisiae, UniProt P40992 1-514)
T1 sequence (looked up): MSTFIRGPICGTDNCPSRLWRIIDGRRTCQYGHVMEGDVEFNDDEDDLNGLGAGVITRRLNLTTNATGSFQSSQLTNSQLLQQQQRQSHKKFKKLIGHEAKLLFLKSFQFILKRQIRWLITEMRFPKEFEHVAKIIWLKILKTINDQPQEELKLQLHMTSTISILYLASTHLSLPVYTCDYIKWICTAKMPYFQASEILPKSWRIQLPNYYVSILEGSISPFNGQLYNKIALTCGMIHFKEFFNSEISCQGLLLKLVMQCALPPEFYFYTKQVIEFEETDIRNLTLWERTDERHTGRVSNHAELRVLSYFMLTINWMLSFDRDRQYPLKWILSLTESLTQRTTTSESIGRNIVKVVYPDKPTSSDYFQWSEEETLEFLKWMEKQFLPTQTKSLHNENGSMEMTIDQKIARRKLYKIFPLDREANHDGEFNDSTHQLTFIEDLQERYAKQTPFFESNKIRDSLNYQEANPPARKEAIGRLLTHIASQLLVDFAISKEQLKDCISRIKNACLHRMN

B1: Rrn6p subunit of recombinant core factor (natural protein, S. cerevisiae, UniProt P32786 1-894, looked up)
chain: MSEGQIPSSDVLGSQLGVGVQGASLYCPQENYTTKKQEKPQWLRPVDDTLAEDALDLHIVVKSLLCDTAIRYISDDKVLQESDADDDLITSDIDEDTDNQGDTSIVVNPVIPVVPKDVHFFKKVDVGNDSMFGVNCDTPVSFQDYIPSDLLRNLDDTLQESTNSSRPMQDAFFWDPTVANRLDSQYIQTASDLRNYRDGTEIIAYASGKTGSVLNIAVLTRQNTLHLNRHNNVTSIELHSPIKSIKIPGASESIGRRSNLVGIITENSFQIFRIESVHSRSCDVMVSSSEPLYFVEIDDLQVVDFAFNPWDLQQFAIIDIKGNWSIGRIPKNFNNNNKRKLQLIDNLHGTIFDPEELSSWKRIEWFSHFQKILVFDRSKMIEIDFMNNWQTEVVQAKAWSNIRDYKRIDDKNGILLTSREIIIVGASESNDPVRRISWKHDLDPDDTTLRITVQKVKKPDHILLVAFVYSMRHKRIYMHVFSHRKANLFQSLGCSTVLEIPGGTPTGIETILTLDHIDDESRREEDADENFELVVDFLVKLRNSSEVYYYALSNTQNSEPNKQETPIIVDHPEWASLFNNADEREKESIGALVSQIKLKERERISRVQNLIEHENSHDEDKYLQDLGYRLSIATNELLESWQKTKDESILSGSLSHSKLKNLLENSDSFASIPEFSSLLDQFFQYYQDQDVTFIGFEKLLHLFLHEDVPGLDIFYNKLLQCWVLVSPQAELLTKEIVKDIIWSLARLEKPSLFEPIQNEISRSLSGPYQDIISSWDMDDINEEDESNEFNFDSQFSAPFNGRPPFNLNSQSQIPTIKSSQSSGLARRKRILKTQSQKATPLSQSTQNLSVLPDSMTPAFTLMQPPSSQISFVNDSQPRNSQKAKKKKKRIRGFG
B2: Rrn11p subunit of recombinant core factor, N-terminal 6-his (natural protein, S. cerevisiae, UniProt Q04712 1-507, looked up)
chain: MFEVPITLTNRKFAQRRKLKYQYINYISRRFDRISKKSTTTDSLPTPENSAAENNDEEEGQNSEAGTYRRSVLQQKKRRRERHWRSVVGEIYSTTESETDSQEEETEEGGEHDTGIDKEDSDEERKFWKKYEKPEKSFEIWRTVSSQNKQPINKQKMTYHNFKKIEKIPLRKMEIPLLHCTKENKLYFQSISRGLEPLKTSTSEVRNYRTRHIVTLTDLLHLNVSRHNWSLAYKIFATLIRIPGVQIKSLWGIGVEILDNLSNSSSGLDFLQWMCQIYSSKSRFVQNINYRSIVPPFQTGSRTHTAKFAITYLWSSLINCQKSMEPSSNIIDKPFDTENDLLQELIDKISEWVLTPPFMEDAEVWFIYASCHLLKADTLSRQFVNDNKNNDLIGLDRDIKINQVIKHIHYVRTFLKICLDKGGFAVPSRLIENQLKSFESRLYGEAQDIQERDVANVYDSIDNSSVENSFGDVYETNAEFLDTQLMDLSPEDNGLDEMHYSDEDSSE

Experiments:
[1] = target: T1, Rrn7p subunit of recombinant core …; assay: quantification of Sypro Ruby stained SDS-PAGE bands of the purified complex
[2] = target: B2; assay: as above

stoichiometry N [1] | stoichiometry N [2] | Binder
1 | 1 | B1
1 |  | B2
